The data set is described as follows: label from the status in PepcDB records.
For “KQAEMEVKRESYARERSTVARIQFRLPDGSSFTNQFPSDAPLEEARQFAAQTVGNTYGNFSLATMFPRREFTKEDYKKKLLDLELAPSASVVLLP”, the protein production entry is listed as “failed”.

Regarding “MSLYKQLLIAICLFVLIIFSGSFFVSLENSREQYNNQLHSHAQDAATALGLSLTPNIDDPAMVELMVSSIFDSGYFSSIRVRDLKTGNVTLERTASPDIPDVPLWFVQLVDLQPGAGEAIVMRGWEQAAKVEVVSHPMFAVTRLWRSSTATFLWLLGCGTLGVLIGALFLRRQLRPLDYIVDQSLAITRREFLSQPDLPNTPEFRRVAQAMNLMVSKLKTLFEEEAERSERLRQEAYQDPQTGLNNRRAFDMQFNDKLADEETAPGFLIMIRVQDLAGMNQRLGGQRTDALLASVGHILRKTQKQHTNTESLLARIRGGEFALFCPGLVDKEVYALIGELTRNIETLHLTGETDVSPVAQFGMVPFRPGDTAQSLFIQGDQALTRAESDTDTTAPYEIPLAGAEQVETDRHMWFNLLDPILEQERLQLFLQPVVACDDPSQVLHHKVLARIQDEQGNSIAAGRFLPWIQRFGWDTRLDQTMLREVLDYLRQHDGNLALSLSGTTVLNLHLLADLLAPLKHQPEVARRLILELDENQLPDSAQLETLIKLLNEHGCALGLQHFGGRFNMIGNLSQWGLAYLKVDGSYIRNIDQEGDKQMFIEALYRATNSIALPLIAERVETAGELKVLQEMGLQGAMGRLLGEPMPAVRA”, the protein production result was “failed”.

For the sequence “MIAKEFETFLLGQEETFLTPAKNLAVLIDTHNADHATLLLSQMTYTRVPVVTDEKQFVGTIGLRDIMAYQMEHDLSQEIMADTDIVHMTKTDVAVVSPDFTITEVLHKLVDESFLPVVDAEGIFQGIITRKSILKAVNALLHDFSKEYEIRCQ”, the protein production entry is “not failed”.

Regarding “MTMSLIAGVAAFVLTVLAMPHFITYYKIKKIGGQQMHEDVKQHLAKAGTPTMGGTVFLVVAILISLIFNFHVFTEGHPAYGATAGILFVILIYGIIGFLDDFLKIFHQINEGLKPWQKMALQIVAGLLFYFIHVLPSGTNSLAIGGLTIQLGVFYVLFVLFWIVGFSNAVNLTDGIDGLASVSVVISLIAYGIIAFVKGELAILTIIITMIGALLGFFVFNHKPAKVFMGDVGSLSLGAMLAVISIALRVEWTLLLIGVVYVLETASVMLQVSYFKYTKRKYGEGRRIFRMTPFHHHLELGGISGKGEKWSEWKVDAFLWTIGALASSITLWMVLGNVMK”, the protein production result is reported as “failed”.

In the case of “MRRPAVTAGPAHVLQRPVKPDLSAILHCVQNCTGCRTVRQARPQRGDQIRVTFLCILSSVFPNDQTDHLRSVRPSGFRYRPRHLNSGLAPLPGTLLEEVSMRNPVLTVTPLALTLILSAAGAQSLQAAQSLYDQGKWQEAATAAAALKTSDGYALAAEATTNGAGLVADSQKKALFAKAQDYAKQAIAADKNNPEAYFELARAQGRLAQFSGILQSLGMAKDMKQNLDTAIKLKPNMASAYVALGLWNANLDSKGAIARSATGASKAQVVPNFEKAIALEANTPIHRVEYANALLLQGNKAGARAQLEKAAGMGADNFWEKRDVATAQAMLAKLK”, the protein production result is recorded as “failed”.

As for “LSNLETAKAMIAAYNAQDVDTYVSYMTDDACEANYRGDVVREGKEGTRSGLAAAFARWPQNHAEIKDAQQVGTYVLMREHVTRGPATDGSPLVEPFDVVAVYSFEGDKCSRVEFIR”, the protein production entry is recorded as “not failed”.

As to “MGQSIKNNFLLNLSTTITGLLFPLITFPYASRILMADGIGQVQFFQSIIDYVSLCTALGIPLYAVREIARIRDNKELRSRTTIEILLLHAILTLVGYIVVFILAKTVAKIEIDASLFFLLSTTLFFNTIGVAWFYQAIEDFKYITLRSLFVRILSLVALFIFVKTKQDLFYYAGILVIGTVGNNIFNFFRLRKYIKLSKGEFKRLNLLRHLIPALKIFILNLVISIYVNLDSVMLGFLKNEESVGYYAAATRLTKAILGIVSSLGAVLLPRFSNMITNGQKEEFQLLANKAASFTIALSLPMSVGLIFMAAPIIHIFCGNGFEPSILTLKLVAPIVLFIGLSGIIGMQILYPQGREKYVIISTMVGACINLLINYLLIPQYGQYGAALGTVIAEFMVTVIMILLGRKYLPINILSKQNLHYLIGSIVISILLAFLFVFPLHEVNYLLIGILLSVIVYYAYLLMIKDTLALQLKKLLLSIFKQ”, the protein production result is “failed”.

Consider “MAGLSGAQIPDGEFTAVVYRLIRNARYAEAVQLLGGELQRSPRSRAGLSLLGYCYYRLQEFALAAECYEQLGQLHPELEQYRLYQAQALYKACLYAEATRVAFLLLDNPAYHSRVLHLQAAIKYSEGDLPGSRSLVEQLPSREGGEESGGENETDGQINLGCLLYKEGQYEAACSKFFAALQASGYQPDLSYNLALAYYSSRQYASALKHIAEIIERGIRQHPELGVGMTTEGIDVRSVGNTLVLHQTALVEAFNLKAAIEYQLRNYEAAQEALTDMPPRAEEELDPVTLHNQALMNMDARPTEGFEKLQFLLQQNPFPPETFGNLLLLYCKYEYFDLAADVLAENAHLIYKFLTPYLYDFLDAVITCQTAPEEAFIKLDGLAGMLTEVLRKLTIQVQEARHNRDDEAIKKAVNEYDETMEKYIPVLMAQAKIYWNLENYPMVEKIFRKSVEFCNDHDVWKLNVAHVLFMQENKYKEAIGFYEPIVKKHYDNILNVSAIVLANLCVSYIMTSQNEEAEELMRKIEKEEEQLSYDDPDKKMYHLCIVNLVIGTLYCAKGNYDFGISRVIKSLEPYNKKLGTDTWYYAKRCFLSLLENMSKHTIMLRDSVIQECVQFLEHCELHGRNIPAVIEQPLEEERMHVGKNTVTYESRQLKALIYEIIGWNI”, for which the protein production result is “failed”.

In the case of “MAQKTLLIITDGIGYRKDSDHNAFFHAKKPTYDLMFKTLPYSLIDTHGLSVGLPKGQMGNSEVGHMCIGAGRVLYQDLVKISLSLQNDELKNNPAFLNTIQKSPVVHLMGLMSDGGVHSHIEHFIALALECEKSHKKVCLHLITDGRDVAPKSALTYLKQMQNICNESIQIATISGRFYAMDRDKRFERIELAYHSLMGLNHTPLSPSEYIQSQYDKNITDEFIMPACFKNYCGMQDDESFIFINFRNDRAREIVSALGQKQFSGFKRQVFKKLHIATMTPYDNTFPYPVLFPKESVQNTLAEVVSQHNLTQSHIAETEKYAHVTFFINGGVETPFKNENRVLIQSPKVTTYDLKPEMSAKEVTLAVLEQMKLGTDLIIVNFANGDMVGHTGNFEASVKAVEAVDACLGEILSLAKKLDYAMLLTSDHGNCERMKDENQNPLTNHTAGSVYCFVLGDGVKSIKNGALNNIASSVLKLMGLKAPATMDEPLF”, the protein production result is recorded as “failed”.

Take “MPDKKREVSLSHRLQEVASFVPKGARLLDVGSDHAYLPIYLLEQGLIDFAVAGEIIKGPYESAVANVSESELSGQIAVRLADGLAALNDNDDIDLITICGMGGRLIADILAAGSDKLNSVKQLILQPNNCEDDLRSWLVANDFMIKAEKMVKDRHKYYEILVVEKGKITLSDKDLRFGPFLRQERSSIFKERWRKELAKLELALTKVPAKKKADNMFLSTKIEQIKEVLYES”: the protein production entry is recorded as “not failed”.

As for “MPPIIKRRVMRKIIIASQNPAKVNAVRSAFSTVFPDQEWEFIGVSVPSEVADQPMSDEETKQGALNRVRNAKQRHPGAEYYVGLEAGIEENKTFAWMIVESDQQRGESRSACLMLPPLVLERLRQAKELGDVMDEVFGTENIKQKGGAIGLLTRHHLTRSTVYHQALILALIPFINPEHYPSA”, the protein production entry is “not failed”.

Regarding “MCPKNASYYGNRAATLMMLGRFREALGDAQQSVRLDDSFVRGHLREGKCHLSLGNAMAACRSFQRALELDHKNAQAQQEFKNANAVMEYEKIAETDFEKRDFRKVVFCMDRALEFAPACHRFKILKAECLAMLGRYPEAQSVASDILRMDSTNADALYVRGLCLYYEDCIEKAVQFFVQALRMAPDHEKACIACRNAKALKAKKEDGNKAFKEGNYKLAYELYTEALGIDPNNIKTNAKLYCNRGTVNSKLRKLDDAIEDCTNAVKLDDTYIKAYLRRAQCYMDTEQYEEAVRDYEKVYQTEKTKEHKQLLKNAQLELKKSKRKDYYKILGVDKNASEDEIKKAYRKRALMHHPDRHSGASAEVQKEEEKKFKEVGEAFTILSDPKKKTRYDSGQDLDEEGMNMGDFDPNNIFKAFFGGPGGFSFEASGPGNFFFQFG”, the protein production entry is given as “failed”.

As to “MQIPHGELRTLTYHSNALKSERQMYVWTPPGYSESSKPLPVLYFYHGFGDTGASAVVQGRIPQMMDNLLAEKKIEPMLVVIPDTETDVPGIIPEEYPPQERRKVFYPRNALAADRELIHDIIPAIGKRFNVRQDANGRALAGLSQGGYQALVSGMSHLDHFGWLATFSGVTTETVPNMAVAAQLERPEQINQQLKNLTVVIGETDNITGKDIAGLKTMLEQKNIRFDYTHYPNLGHEMDVWRPAYSEFVQKLFKLEHHHHHH”, the protein production entry is recorded as “not failed”.

As to “MLSVRIPGPARQAWAIVEQRPWLARRPFIIHGPPWRLASQQEDDVFKLMSRSAVKMVERYLPDPYVFVVLLTLVAAGAAMIIEGQTPMAVVRWWGNGFWGLLTFAMQMLLVLVTGYMLASTPLVKRMLARLASLATSAGGAIILVSVVSLAASWINWGFGLVVGALFAKQIARQVRVDYRLLVASAYSGFIIWHGGLAGSIPLTIATEGHFSADKIGIIPTGDTIFAVFNLVIVVAMFILVPLVNRLMLPDEKESVYVDPARLEEASVPASDDDKRPAARLENSRLLAWLIAAGGLAYMFDYYVVRGAGLNLNVINFSFLILAILLHGTPRRLLTSLDEAIKGGAGIVIQFPFYAGIMAIMMDSGLAATLSEWFVSIASAATLPFWTFISAGIVNIFIPSGGGQWAVQSPIVISAAQALGADMPRVAMAVAWGDAWTNMLQPFWALPVLAIAGLKAKDIMGYCIIQLLVTGVIISVGLSFF”, the protein production entry is given as “failed”.

Consider “MMALQEEKGKPVHCERHHESSSVDTEPGLEESKEVIKWKRLPGQACRIPNKHLFSLNAGERGCFCLDFSHNGRILAAACASRDGYPIILYEIPSGRFMRELCGHLNIIYDLSWSKDDHYILTSSSDGTARIWKNEINNTNTFRVLPHPSFVYTAKFHPAVRELVVTGCYDSMIRIWKVEMREDSAILVRQFDVHKSFINSLCFDTEGHHMYSGDCTGVIVVWNTYVKINDLEHSVHHWTINKEIKETEFKGIPISYLEIHPNGKRLLIHTKDSTLRIMDLRILVARKFVGAANYREKIHSTLTPCGTFLFAGSEDGIVYVWNPETGEQVAMYSDLPFKSPIRDISYHPFENMVAFCAFGQNEPILLYIYDFHVAQQEAEMFKRYNGTFPLPGIHQSQDALCTCPKLPHQGSFQIDEFVHTESSSTKMQLVKQRLETVTEVIRSCAAKVNKNLSFTSPPAVSSQQSKLKQSNMLTAQEILHQFGFTQTGIISIERKPCNHQVDTAPTVVALYDYTANRSDELTIHRGDIIRVFFKDNEDWWYGSIGKGQEGYFPANHVASETLYQELPPEIKERSPPLSPEEKTKIEKSPAPQKVK”, for which the protein production entry is listed as “failed”.

On to “MKQHILVLEDANQRRTIILDEQQYSIGRHSGTSIQIHSRQASRHHATLMRKTNSKTNEECFWIIDGDLEGNKSQNGVFVNGEKRLIHELKNGDLINFGCSINALEHHHHHH”, for which the protein production result was “failed”.

Consider “MFVGVVVIVAYGNLGQRLAYTVRSDEVVATAGFVLVGFVAGVAGQVLGTRIQAAVGEGAAVVDLPLVLFLAASGAFVAALLRSVLFERDDPLVMLTVGLLLWLFFELDPSVTARRVVIALAVTVLLGYLSYALDTASLPGMLTGVLLSFLTIVLGGFGWFAMLITFFGLGGLSTKYRYDEKLDRGIAEENEGARGSGNVLANSIVALFAVVAAAASPSHIAVDPLLFFYAFAGAVAAAMTDTFSSEFGGLYDNPRLITTLRPVEPGTDGGVTWQGVAAGAAGAGIIAGIAALTQDISTVGSGVILLCGLVGMTVDSLLGATVEGSVVGNQGVNMLATLAAALTGAGVVLTAGLL”, for which the protein production result is on record as “failed”.

For the sequence “MRTALLQNLFSLFPFDLHGDCDVPPARDGIRVSCIINFYGRLNVLAGILWSLAQQDFPRSAFEVILVEDRGGSDEGRALAEEFSSRLPIVYAPLDKQYGLMGYSRNFGLERSRGEFILFLDDDTIILQDDFLKTMVAYFDAQPGVSAIMPHGEASFAFVDDRYDFHDPFFMTSRCTAYRRTVLASLGGFMSSFIGQEDVEFVIRFHAAGNRCAAVPQLAYRHPPLYVTNLGKPMAVGSSFYGIRKRYPLVTWLLAVVNCSRHLPLVLAPSRKYREMGRFGLGFLWGVLTAPFRSGSLNYRLEHHHHHH”, the protein production result was “failed”.

These data come from a protein production outcome set (Wang et al. 2014).
